Assay results published in patent US5432156A, “Therapeutic agent for digestive tract diseases” (Nisshin Flour Milling Co., Ltd., priority 1993, dated 1995).

Columns and labels:
male BALB/c mice = assay: Intraperitoneal administration to mice, observation of appearance; assay type: in vivo; conditions: 10 mg/kg intraperitoneally, 6 weeks age
intestinal mucosa = assay: Example 2: weight of intestinal mucosa in rats, glicentin compared with related peptides; assay type: in vivo; conditions: 1 nmol per rat s.c.
[1] = tested on: motility of the digestive tracts; assay: Example 3: motility of the digestive tracts after meal in dogs (strain gauge transducers); assay type: in vivo, hybrid dogs
Procedure: An experiment was performed as described below in order to examine the action of glicentin on a motility of the digestive tracts after meal.
Six hybrid dogs weighing 16-18 kg were sutured with strain gauge transducers (manufactured by Star Medical, F121S) at a site of the gastric antrum 4 cm from the pyloric ring, a site of the duodenum for the main incurrent pancreatic duct and a site of the jejunum 10 cm from the Treitz's ligamentum, respectively, to measure the contractile force intensity of the circular muscle. Recovery period for the suture was 2 weeks.
Three of the 6 dogs were intravenously given over 1 hour 15 ml of a physiological saline solution in which 400 pmol of glicentin had been dissolved per kg of bodyweight. The remaining three received an aqueous physiological solution containing no glicentin in the same way as above as a control for comparison. The dogs were fed on 15 g of a solid diet (SD®, manufactured by Oriental Yeast K.K.) and 15 g of Vitaone® (manufactured by Nihon Pet Food K.K. and Kyodo Shiryo K.K.) per kg of bodyweight simultaneously with the intravenous administration.
Then, the motor activity of the digestive tracts and length of the post-feed period were measured. Intensity of the contraction in the post-feed period was integrated for the two-hour measurements and evaluated in comparison with the mean level of the signal peak in phase 3 motor activity of the intestinal tracts in hunger and taken as a motor index.

intestinal mucosae = assay: Example 1: nutritional (trophic) effect on the intestinal mucosae of rats fed an elemental nutrition; assay type: in vivo, male SD rats
Procedure: An experiment was performed in male SD rats weighing 140-160 g which had been fed on standard food under light-dark condition of a cycle of 12 hours. The food which was replaced by an elemental nutrition (Elental®, Morishita-Roussel Japan) was taken ad lib., and remained unchanged until the experiment was finished. After feeding on the component nutrition for 3 days, administration of glicentin prepared as described below was started.
Gelatin was dissolved in warm water to a weight ratio of 16%, and the solution autoclaved and cooled to room temperature. To 40 ml of the gelatin solution was added a solution of 1 mg of glicentin in 10 ml of distilled water with stirring at room temperature. The mixture was divided into test tubes, freeze dried and stored for use.
The gelatin solution was subcutaneously given at a dose of 10 μg per glicentin every 12 hours for 7 days to examine a nutritional effect of glicentin on the intestinal mucosae. A similar gelatin solution containing no glicentin was given for the same period of time as a control for comparison. Twelve hours after completion of the final administration, the rats were sacrificed and subjected to removal of the small intestine in the region from the Treitz's ligamentum to the cecum. The removed small intestine was cut at the central site to separate it into the jejunum and the ileum. The lumen of each of the intestinal tracts was gently washed with an aqueous physiological saline solution. The intestinal tracts were longitudinally incised, respectively, and tissues were removed of a portion of the jejunum in proximity to the duodenum, a portion of the ileum in proximity to the cecum and a portion around the boundary between the jejunum and the ileum and fixed in a 3.7% formalin solution as the proximal, distal and middle sites of the small intestine, respectively. Mucosae were collected by ablation with a spatula from the remainder of the intestinal tracts and weighed, respectively.
The tissues fixed in the formalin solution were embedded in paraffin to form a preparation which was stained with hematoxylin-eosin and measured for height of the villi using an optical microscope.

[2] = 400 pmol/kg i.v. over 1 hour, post-feed contraction integrated over two hours, relative to phase 3 peak in hunger
[3] = 400 pmol/kg i.v., versus control
[4] = 10 μg s.c. every 12 hours for 7 days
[5] = 10 μg s.c. every 12 hours for 7 days, hematoxylin-eosin, optical microscope

B1: glicentin (protein)
chain: RSLQDTEEKSRSFSASQADPLSDPDQMNEDKRHSQGTFTSDYSKYLDSRRAQDFVQWLMNTKRNRNNIA
notes: peptide of 69 amino acid residues, one of the enteroglucagons; human glicentin prepared by genetic engineering procedure
change in appearance (male BALB/c mice): no change in appearance is observed | effect on the weight of intestinal mucosa (in words) (intestinal mucosa; versus control group): significantly increases | Intestinal mucosal weight (intestinal mucosa; third quarter of the small intestine from the duodenum): 0.614 ± 0.025 g | Length of post-feed period ([1]; 400 pmol/kg i.v. over 1 hour, given with feeding): 13.6 ± 1.0 h | Motor index, duodenum [1, 2]: 0.675 ± 0.4 | Motor index, jejunum [1, 2]: 1.087 ± 0.2 | Motor index, stomach vestibulum [1, 2]: 0.878 ± 0.1 | influence upon the length of the post-feed period (in words) [1, 3]: no influence | post-feed motility in the vestibulum of stomach (in words) [1, 3]: inhibited | Ileal mucosal weight (intestinal mucosae; [4]): 1.04 g | Ileal mucosal weight per 100 g bodyweight (intestinal mucosae; [4]): 0.57 g/100 g bodyweight | Jejunal mucosal weight (intestinal mucosae; [4]): 1.3 g | Jejunal mucosal weight per 100 g bodyweight (intestinal mucosae; [4]): 0.75 g/100 g bodyweight | Length of small intestine (intestinal mucosae; [4]): 107.0 cm | Length of small intestine per 100 g bodyweight (intestinal mucosae; [4]): 66.4 cm/100 g bodyweight | Whole small intestinal mucosal weight (intestinal mucosae; [4]): 2.38 g | Whole small intestinal mucosal weight per 100 g bodyweight (intestinal mucosae; [4]): 1.32 g/100 g bodyweight | Villous height in distal intestine (intestinal mucosae; [5]): 216 ± 8.4 μm | Villous height in middle intestine (intestinal mucosae; [5]): 354 ± 7.5 μm | Villous height in proximal intestine (intestinal mucosae; [5]): 546 ± 18.6 μm | effect on ileal mucosa (in words) (intestinal mucosae; versus control group): tendency to increase | effect on jejunal mucosal weight (in words) (intestinal mucosae; versus control group): significantly increases | effect on length of the small intestine (in words) (intestinal mucosae; versus control group): tendency to increase | effect on whole small intestinal mucosal weight including jejunum and ileum (in words) (intestinal mucosae; versus control group): significantly increases
